Measured values published in patent CN111018978A (DONGGUAN PENGZHI BIOTECHNOLOGY CO LTD, dated 2020).

Target: T1, 人心肌肌钙蛋白I (cTnI) (human, UniProt P19429 1-210, limits assumed)
T1 construct: Both are treated here as one molecule; also called cTnI蛋白; cTnI质控品重组蛋白
Test: BLI (AMC sensor), antibody captured, cTnI recombinant protein in solution

T1 sequence (P19429 whole entry): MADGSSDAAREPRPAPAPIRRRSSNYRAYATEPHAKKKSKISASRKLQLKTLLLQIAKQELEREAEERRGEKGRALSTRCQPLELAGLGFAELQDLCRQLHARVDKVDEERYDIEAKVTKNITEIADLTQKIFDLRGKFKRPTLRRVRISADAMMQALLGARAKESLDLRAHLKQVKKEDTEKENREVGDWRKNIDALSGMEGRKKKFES

Kd: 65.5 nM | koff: 0.00278 s⁻¹ | kon: 42500 M⁻¹ s⁻¹
B1: Anti-cTnI 6E3 重组抗体 (WT) (antibody, mouse IgG1, kappa, V domains shown)
VH: EVQLQQSGPEVVKPGASVKISCKASGFIFSGQTMNWVKQSGEKNLEWIGLLNPSDNTTYNNKFKGKATLTVDKSSNTAYMQLLSLTSEDSAVYYCSSFGSWAQGTLVTVSA
VL: DIVLTQSPASLAVSLGQRATISCKASNSIDYEGDSYMNWYQQKPGQSPKLLIFVASLVDSGIPARFSASGSGTDFTLNIHPVEEEDAATYYCQQTYEGPWTFGGGTKLEIKR
notes: also called 样品1的抗体; Anti-cTnI 6E3单克隆抗体
